The values that follow come from patent US20180312587A1 (ADURO BIOTECH HOLDINGS EUROPE B V, published 2018).

Assay [1] deals with T1, hSIRPα expressed on primary human cells (human, UniProt P78324 31-504).
T1 construct: whole, on cells; also called hSIRPα on primary human CD14+ monocytes; on primary human granulocytes
Kind of assay: flow cytometry, primary human granulocytes, donor 1. On the procedure: Next, cells were centrifuged at 300 g for 7 minutes. Supernatants containing lysed RBCs were removed by aspiration, and the remaining blood cells were gently resuspended in RBC lysis buffer and kept on ice for 1 minute. RBC lysis was neutralized by adding assay medium (IMDM (Gibco) supplemented with 10% Fetal Bovine Serum (Gibco) and Pen/Strep (Gibco)). Blood cells were centrifuged at 300 g for 6 minutes and supernatants were removed by aspiration to remove remaining RBCs as much as possible. Subsequently, erythrocyte-lysed blood cells were resuspended in assay medium containing 10 ng/mL IFNγ and cells were incubated for 1 hour at 37° C., 5% CO₂ and 95% humidity. […] The percentage of granulocytes present in the cell suspension was determined by flow cytometry on the FACSCanto II (BD Biosciences) based on high forward scatter (FSC) and side scatter (SSC). Binding of hSIRPα.50A to human granulocytes was assessed by incubating the cells for 30 minutes at 4° C. with hSIRPα.50A antibody (25 μg/mL and dilutions thereof) in PBS/1% BSA containing 10% autologous serum (PBS/1% BSA/10% serum). […] After this labeling procedure, cells were washed two times, resuspended in PBS/1% BSA/10% serum and analysed by flow cytometry on the FACSCanto II (BD Biosciences). Data were processed and analysed with FlowJo V10 software (FlowJo, LLC). […]
For orientation: A flow cytometer gives signals particle by particle.

A further assay addresses T2, hSIRPαV6 (NA18507_V6) (human, UniProt P78324 31-504).
T2 construct: also called human SIRPαV6
The assay can be described thus: CELISA, CHO-K1 transfectants. As for the experimental part: (§1) The binding specificity of antibodies hSIRPα.40A and hSIRPα.50A to hSIRPα were compared in a CELISA format. In short, CHO-K1 cells were transiently transfected with hSIRPαV1, hSIRPαV2, hSIRPβ1, hSIRPβL, and hSIRPγ cDNAs. Subsequently, hSIRPα binding was assessed by CELISA using CHO-K1.hSIRPαV1, CHO-K1.hSIRPαV2, CHO-K1.hSIRPβ1, CHO-K1.hSIRPβL, and CHO-K1.hSIRPγ cells. Detection of bound antibody was done with goat-anti-mouse IgG-HRP (Southern Biotech).
(§2) In addition, the specificity of hSIRPα.40A for all known of hSIRPα alleles (allelic variants as described by Takenaka et al., Nat Immunol. 8:1313-1323 (2007) was further investigated by CELISA using the same strategy as above. To this end, hSIRPα.40A binding was assessed using CHO-K1 cells that were transiently transfected with cDNAs encoding full length hSIRPαV1, hSIRPαV2, hSIRPαV3 (NA07056_V3) (SEQ ID NO: 44), hSIRPαV4 (NA11832_V4) (SEQ ID NO: 46), hSIRPαV5 (NA18502_V5) (SEQ ID NO: 48), hSIRPαV6 (NA18507_V6) (SEQ ID NO: 50), hSIRPαV8 (NA18570_V8) (SEQ ID NO: 52), and hSIRPαV9 (NA18943_V9) (SEQ ID NO: 54).

Another assay concerns the target T3, human SIRPα variant 2 (human, UniProt P78324 31-504).
T3 construct: full length ORF on transfected CHO-K1 cells; also called hSIRPαV2; SIRPαV2
The assay can be described thus: CELISA, CHO-K1 transfectants. As for the experimental part:
as §1, §2

In the next assay the target is T4, human SIRPα variant 1 (human, UniProt P78324 31-504).
T4 construct: full length ORF on transfected CHO-K1 or HEK293 cells; entry includes the signal peptide; also called hSIRPαV1; SIRPαV1
Kind of assay: CELISA, CHO-K1 transfectants. As for the experimental part:
as §1, §2

The target of another assay is T5, hSIRPαV3 (NA07056_V3) (human, UniProt P78324 31-504).
T5 construct: also called human SIRPαV3
The assay can be described thus: CELISA, CHO-K1 transfectants. On the procedure:
as §1, §2

A further assay addresses T6, hSIRPαV8 (NA18570_V8) (human, UniProt P78324 31-504).
T6 construct: also called human SIRPαV8
Kind of assay: CELISA, CHO-K1 transfectants. As for the experimental part: as §1, §2

For another assay, the target named is T7, hSIRPαV9 (NA18943_V9) (human, UniProt P78324 31-504).
T7 construct: also called human SIRPαV9
The assay can be described thus: CELISA, CHO-K1 transfectants. As for the experimental part:
as §1, §2

In the next assay the target is T8, hSIRPαV5 (NA18502_V5) (human, UniProt P78324 31-504).
T8 construct: also called human SIRPαV5
Kind of assay: CELISA, CHO-K1 transfectants. As for the experimental part:
as §1, §2

The next assay addresses T9, hSIRPαV4 (NA11832_V4) (human, UniProt P78324 31-504).
T9 construct: also called human SIRPαV4
T9 chain: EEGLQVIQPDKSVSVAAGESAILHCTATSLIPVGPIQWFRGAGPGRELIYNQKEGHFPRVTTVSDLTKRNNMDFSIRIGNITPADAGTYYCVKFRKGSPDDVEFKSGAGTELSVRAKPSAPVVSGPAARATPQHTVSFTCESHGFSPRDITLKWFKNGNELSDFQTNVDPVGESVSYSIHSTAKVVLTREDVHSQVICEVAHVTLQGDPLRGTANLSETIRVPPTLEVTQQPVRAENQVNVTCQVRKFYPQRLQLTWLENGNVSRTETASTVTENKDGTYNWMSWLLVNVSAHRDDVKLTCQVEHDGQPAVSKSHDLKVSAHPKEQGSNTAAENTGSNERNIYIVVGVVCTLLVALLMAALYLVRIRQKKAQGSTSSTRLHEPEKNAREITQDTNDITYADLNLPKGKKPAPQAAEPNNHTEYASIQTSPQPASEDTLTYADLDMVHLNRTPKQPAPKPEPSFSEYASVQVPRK
Kind of assay: CELISA, CHO-K1 transfectants. As for the experimental part: as §1, §2

T1 sequence (P78324 31-504): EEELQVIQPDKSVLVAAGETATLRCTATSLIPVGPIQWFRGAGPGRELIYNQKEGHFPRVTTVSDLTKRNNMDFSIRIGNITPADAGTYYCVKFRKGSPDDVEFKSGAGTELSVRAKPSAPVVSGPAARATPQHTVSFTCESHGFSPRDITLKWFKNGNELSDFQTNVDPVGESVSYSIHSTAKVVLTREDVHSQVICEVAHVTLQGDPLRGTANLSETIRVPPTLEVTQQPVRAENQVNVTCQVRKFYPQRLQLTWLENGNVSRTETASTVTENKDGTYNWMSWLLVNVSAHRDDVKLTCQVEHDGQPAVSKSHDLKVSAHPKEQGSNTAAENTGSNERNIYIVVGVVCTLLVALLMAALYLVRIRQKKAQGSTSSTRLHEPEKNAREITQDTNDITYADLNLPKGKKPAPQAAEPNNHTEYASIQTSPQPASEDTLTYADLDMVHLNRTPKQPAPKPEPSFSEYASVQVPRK

B1: hSIRPα.50A (antibody, V domains shown)
VH: QVQLQQSGPELVKPGASVRISCKASGFTFTNYYIHWVKQRPGQGLEWIGWIYPGNVNTKYNEKFKAKATLTADKSSTTAYMQLSSLASEDSAVYFCARPTIIATDFDVWGAGTTVTVSS
VL: DIVMTQSHKFMSTSVGDRVNITCKASQGVGTAVGWYQQKPGQSPRLLIYWASTRHTGVPDRFTGSGSGTDFSLAISNVQSEDLADYFCQQYSTYPFTFGGGTNLEIK
notes: light chain constant domain not tied; also called mouse hSIRPα.50A; hSIRPα.50A.mIgG1
Take B1: the EC50 in [1] was 4.3 nM; with hSIRPαV6 (NA18507_V6) it was 2.22 nM; with human SIRPα variant 2, 1.07 nM; with human SIRPα variant 1, 1.69 nM; in the assay with hSIRPαV3 (NA07056_V3), 1.77 nM; with hSIRPαV8 (NA18570_V8) it was 1.51 nM. The EC50 in the assay with hSIRPαV9 (NA18943_V9) is 1.37 nM; in the assay with hSIRPαV5 (NA18502_V5) it was 1.26 nM; with hSIRPαV4 (NA11832_V4), 1.3 nM.

B2: hSIRPα.40A (antibody, mouse IgG1, kappa, V domains shown)
VH: EVQFQQSGTVLARPGTSVKMSCKASGSTFTSYWMHWVKQGPGQGLQWIGAIYPVNNDTTYNQKFKGKAELTVVTSTSTAYMEVSSLTNEDSAVYYCTRSFYYSLDAAWFVYWGQGTLVTVSA
VL: DIQMTQSPSSLSASLGERVSLTCRASQDIGSRLNWLQQEPDGTIKRLIYATSSLDSGVPKRFSGSRSGSDYSLTISGLESEDFVDYYCLQYASSPFTFGGGTKLEINR
notes: mouse antibody, full chains without signal peptide; also called mouse hSIRPα.40A
Take B2: the 50% effective concentration (EC50) came out at 1.23 nM in assay [1]; 0.136 nM in the assay with hSIRPαV6 (NA18507_V6); 0.089 nM with human SIRPα variant 2; 0.134 nM in the assay with human SIRPα variant 1; 0.107 nM with hSIRPαV3 (NA07056_V3); 0.089 nM in the assay with hSIRPαV8 (NA18570_V8). For the same molecule, the EC50 with hSIRPαV9 (NA18943_V9) came to 0.115 nM; in the assay with hSIRPαV5 (NA18502_V5) it was 0.115 nM; in the assay with hSIRPαV4 (NA11832_V4), 0.1 nM.

Broadly, the EC50 is the concentration needed to bring the measured effect to its halfway point.
